Here are results for 1 substance from paper doi:10.1101/2021.10.29.464531.

This assay concerns the target tick-borne encephalitis virus capsid protein (tick-borne encephalitis virus, strain Kuutsalo-14). Nature of the assay: cross-linking.

Take “tick-borne encephalitis virus capsid protein (natural protein)”: the stoichiometry N – broadly, a count of units in the complex or per binding partner – was determined as 2.
